In assay [1] the target is T1, APRIL (Acro Biosystems, Cat: APL-H52D1) (UniProt O75888 115-250, limits assumed).
T1 construct: also called ARPIL
T1 sequence (looked up): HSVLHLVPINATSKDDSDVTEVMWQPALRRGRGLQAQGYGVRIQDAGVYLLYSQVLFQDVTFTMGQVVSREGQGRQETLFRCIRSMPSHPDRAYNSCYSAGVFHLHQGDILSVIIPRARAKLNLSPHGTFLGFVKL
Put plainly: ELISA, APRIL coated at 1 ug/mL, anti-human Fc-HRP, OD450.

Assay [2] has as its target BAFF (PeproTech, Cat: 310-13) (UniProt Q9Y275 134-285). Put plainly: ELISA, BAFF coated at 1 ug/mL, anti-human Fc-HRP, OD450. Here is the method: The capabilities of B613301, B613302, and B613303, which are fusion proteins of anifrolumab and TACI-BCMA, to bind to BAFF and APRIL were assessed by ELISA as follows: [0548] BAFF (PeproTech, Cat: 310-13) or ARPIL (Acro Biosystems, Cat: APL-H52D1) was diluted to 1 μg/mL with PBS, and a 96-well plate (Costar, Cat: 3590) was coated with the dilution overnight at 4° C. The plate was washed with PBST and blocked with Blocking Buffer (PBST containing 1% BSA) at 37° C. for 1 h. The plate was tapped. The test antibodies were diluted with Blocking Buffer. Incubation was performed at 37° C. for 1.5 h. The plate was washed with PBST. An HRP-mouse anti-human Fc antibody (GenScript, Cat: A01854-200) was diluted with Blocking Buffer. Incubation was performed at 37° C. for 40 min. The plate was washed with PBST. 100 μL of TMB substrate solution (Biopanda, Cat: TMB-S-003) was added, and color development was performed at 37° C. for 3 min. 100 μL of ELISA stop solution (Solarbio, Cat: C1058) was added. OD450 was measured.
In general terms: In an ELISA, binding on a coated surface is turned into a signal by an enzyme label.

For assay [3], the target named is T2, BAFF (Sino biological, 10056-HNCH) (UniProt Q9Y275 134-285, biotinylated in the blocking ELISA (site not stated)).
T2 construct: also called BLyS
Put plainly: competition ELISA: fusion protein pre-mixed with biotinylated BAFF, added to coated BAFF-R. Here is the method: The above TACI-Fc fusion proteins' function of blocking the binding of BAFF to BAFF-R was further assessed as follows: The receptor protein was diluted with a pH 7.4 PBS (BasalMedia, B320) buffer to 2 μg/mL, and the resulting dilution was added to a 96-well microplate (Corning, 3590) at 100 μL/well. The plate was incubated overnight at 4° C. After the liquid was discarded, 1% Casein blocking solution (Thermo, 37528) was added at 200 μL/well for blocking, and the plate was incubated at 37° C. for 2 h. After the blocking, the blocking solution was discarded, and the plate was washed 3 times with a PBST buffer (pH 7.4 PBS containing 0.1% tween-20) and set aside for later use. A biotinylated ligand protein at a fixed concentration was mixed with a serially diluted antibody or fusion protein, and the mixture was pre-incubated at 37° C. for 30 min and then added to the blocked microplate. The plate was incubated at 37° C. for 1.5 h. After the incubation, the plate was washed 3 times with PBST, and streptavidin-HRP (Invitrogen, 434323, diluted in a 1:4000 ratio) was added at 100 μL/well. The plate was incubated at 37° C. for 1 h. The supernatant was removed. […] The absorbance at 450 nm was measured using a microplate reader. Curves for the inhibition of the binding of the ligand to the receptor were fitted using software, and IC₅₀ values were calculated. […]

In assay [4] the target is T3, recombinant human APRIL (R&D cat: 5860-AP-010/CF) (human, UniProt O75888 105-250, limits assumed).
T3 sequence (looked up): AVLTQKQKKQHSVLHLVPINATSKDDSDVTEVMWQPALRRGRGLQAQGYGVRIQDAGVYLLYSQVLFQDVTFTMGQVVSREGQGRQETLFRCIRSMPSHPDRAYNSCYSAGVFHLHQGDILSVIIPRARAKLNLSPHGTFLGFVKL
In words: cell-based or functional assay.

For assay [5], the target named is T4, recombinant human BAFF (R&D cat: 7537-BF-025/CF) (human, UniProt Q9Y275 134-285). Put plainly: cell-based or functional assay.
For assay [6], the target named is T4, recombinant human BAFF (R&D cat: …). Put plainly: cell-based or functional assay. This is another data set of the same source.
The target in assay [7] is T3, recombinant human APRIL (R&D cat: …). Put plainly: cell-based or functional assay. The source holds these as a separate data set.

Experimental findings from patent publication US20260056186A1 (JIANGSU HENGRUI PHARMACEUTICALS, published 2026) are described below.

B1: Telitacicept (RCT-18) (Fc fusion)
chain: SRVDQEERFPQGLWTGVAMRSCPEEQYWDPLLGTCMSCKTICNHQSQRTCAAFCRSLSCRKEQGKFYDHLLRDCISCASICGQHPKQCAYFCENKLRSPVNLPPELDKTHTCPPCPAPEAEGAPSVFLFPPKPKDTLMISRTPEVTCVVVDVSHEDPEVKFNWYVDGVEVHNAKTKPREEQYNSTYRVVSVLTVLHQDWLNGKEYKCKVSNKALPSSIEKTISKAKGQPREPQVYTLPPSRDELTKNQVSLTCLVKGFYPSDIAVEWESNGQPENNYKTTPPVLDSDGSFFLYSKLTVDKSRWQQGNVFSCSVMHEALHNHYTQKSLSLSPGK
notes: Positive control TACI-Fc; also called RC18
Turning to B1, in assay [1], the midpoint of the response, the EC50, lay at 0.536 nM and the Emax came out at 2.98. The response in assay [2] was half-maximal at 0.801 nM (EC50). Besides, the half-inhibitory concentration (IC50) (in general, the concentration that gives 50% inhibition) in assay [3] was determined as 27.5 nM. Also, in assay [4], the “Flow cytometry proliferating B cell proportion (%), mean value, APRIL-induced, drug at 4.12 nM (IgG1: 55.30)” value came to 48.1%; the “Flow cytometry proliferating B cell proportion (%), mean value, APRIL-induced, drug at 12.35 nM (IgG1: 54.80)” value amounted to 49.2%; the “Flow cytometry proliferating B cell proportion (%), mean value, APRIL-induced, drug at 37.04 nM (IgG1: 56.63)” value came out at 50.1%; the “Flow cytometry proliferating B cell proportion (%), mean value, APRIL-induced, drug at 111.11 nM (IgG1: 55.83)” value stood at 50.3%. Also, in assay [4], the “Flow cytometry proliferating B cell proportion (%), mean value, APRIL-induced, drug at 333.33 nM (IgG1: 56.27)” value was determined as 49.1% and the “Flow cytometry proliferating B cell proportion (%), mean value, APRIL-induced, drug at 1000.00 nM (IgG1: 53.27)” value was 46.3%. Besides, in assay [5], the “Flow cytometry proliferating B cell proportion (%), mean value, BAFF-induced, drug at 10 nM (IgG1: 40.15)” value was determined as 36%; the “Flow cytometry proliferating B cell proportion (%), mean value, BAFF-induced, drug at 100 nM (IgG1: 40.60)” value stood at 30.7%; the “Flow cytometry proliferating B cell proportion (%), mean value, BAFF-induced, drug at 1000 nM (IgG1: 33.97)” value was determined as 24.3%. Further, in assay [6], the “CD27+ CD38+ plasma cell count, mean value, BAFF + APRIL-induced (both ligands together), drug at 100 nM (IgG1: 2496)” value is 510 cells and the “CD27+ CD38+ plasma cell count, mean value, BAFF + APRIL-induced (both ligands together), drug at 1000 nM (IgG1: 2279)” value was 230 cells. Besides, in assay [7], the “CD27+ CD38+ plasma cell count, mean value, BAFF + APRIL-induced (both ligands together), drug at 10 nM (IgG1: 2687)” value turned out to be 2450 cells; the “CD27+ CD38+ plasma cell count, mean value, BAFF + APRIL-induced (both ligands together), drug at 100 nM (IgG1: 2496)” value is 510 cells; the “CD27+ CD38+ plasma cell count, mean value, BAFF + APRIL-induced (both ligands together), drug at 1000 nM (IgG1: 2279)” value was found to be 230 cells.
